From patent publication US20250381244A1 come the findings set out here.

This assay deals with Neuropilin-2 (human NRP-2), endogenous on U87MG, Jurkat and HUVEC cells (human) (UniProt O60462). As to the kind of experiment: cell-based or functional assay.
Chain of Neuropilin-2 (human NRP-2), endogenous on U87MG, Jurkat and HUVEC cells (human) (O60462 21-931 limits assumed): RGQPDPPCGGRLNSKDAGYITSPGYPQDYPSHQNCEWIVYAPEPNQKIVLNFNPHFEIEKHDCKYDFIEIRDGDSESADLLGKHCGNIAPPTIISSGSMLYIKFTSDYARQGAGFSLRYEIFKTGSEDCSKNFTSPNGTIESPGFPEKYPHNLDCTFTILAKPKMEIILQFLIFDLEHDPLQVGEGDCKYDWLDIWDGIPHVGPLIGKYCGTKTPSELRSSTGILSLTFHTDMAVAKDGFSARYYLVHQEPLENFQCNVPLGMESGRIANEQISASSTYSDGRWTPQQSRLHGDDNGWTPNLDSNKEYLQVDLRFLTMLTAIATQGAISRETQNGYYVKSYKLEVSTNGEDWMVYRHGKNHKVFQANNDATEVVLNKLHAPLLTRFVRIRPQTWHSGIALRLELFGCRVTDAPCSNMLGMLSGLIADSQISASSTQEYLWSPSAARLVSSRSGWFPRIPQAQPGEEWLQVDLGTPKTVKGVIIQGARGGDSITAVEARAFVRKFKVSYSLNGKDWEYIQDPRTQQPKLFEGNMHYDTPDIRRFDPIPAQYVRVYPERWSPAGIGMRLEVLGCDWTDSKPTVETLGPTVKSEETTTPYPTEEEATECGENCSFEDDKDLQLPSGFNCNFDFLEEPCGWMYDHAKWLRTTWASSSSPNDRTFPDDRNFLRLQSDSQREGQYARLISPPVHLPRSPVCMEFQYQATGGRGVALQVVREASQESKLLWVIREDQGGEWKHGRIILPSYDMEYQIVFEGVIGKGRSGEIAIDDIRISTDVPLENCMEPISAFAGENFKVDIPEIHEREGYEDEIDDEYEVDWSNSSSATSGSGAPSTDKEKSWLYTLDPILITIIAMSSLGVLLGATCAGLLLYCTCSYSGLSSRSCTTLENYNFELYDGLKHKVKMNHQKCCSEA

In the case of “Human recombinant SEMA3F (full-length, His-Myc-tagged human SEMA3F, secreted by 293T cells and purified) (from UniProt Q13275 20-785) (ligand)”, the inhibition of DFO-induced VEGF promoter luciferase activity, U87MG cells stood at 43%; the inhibition of stress fiber formation (phalloidin staining), pcDNA3.1 control vector transfected U87MG cells stood at 90%; the reduction of hypoxia (1% O2)-induced VEGF promoter luciferase activity, U87MG cells is 44%; the suppression of RhoA activity (rhotekin pulldown), control pcDNA3.1-transfected U87MG cells was 88%.
